Data as given in the supplement of paper PMC12042874.
± gives the uncertainty stated by the source.

Test: amyloid nucleation score (Sup35N fusion, yeast selection) (log enrichment); library NNK3; higher = more nucleation; inactive = no reads after selection
In short: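 The nucleation score is the DiMSum log enrichment of output over input reads, centred on the mode score of non-aggregating sequences. Only sequences with 100 or more input reads were scored, using Illumina sequencing of input and output plasmid inserts. Psi-negative yeast expressing Sup35N fused to peptides of 20 random codons were induced 24 hours with 100 μM copper sulfate and grown 7 days at 30°C on medium lacking adenine and uracil.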

Substance	amyloid nucleation score
SFSELVSAASKTQTVCRRKC	inactive
SFSFSKSNVSERDLCSTCTV	inactive
SFSKLVFR	inactive
SFSSLQFVNIATPHY	0.42 ± 0.2
SFSVTMPMPIYTTLNGPLTN	inactive
SFSYDTRVDVSAILQSQNSL	inactive
SFTMMRSFSA	inactive
SFVPDLRARVMSCSGCSTLG	inactive
SFVYVSALVSLHGGFADAKF	0.885 ± 0.22
SFWCRVSHLSRDTFMDVRFM	inactive
SFWTQ	inactive
SFYEEGFVSYLDIRGIVYGA	inactive
SFYLVYRGIFDISLTEFVL	inactive
SGCDLLFFYYHRRTVPLANW	inactive
SGDPGGHQSRR	inactive
SGFLYCNLSKSSCYAFQAGG	inactive
SGFVRWRSISFLPNHERLST	inactive
SGISCGLGLATGRKYGSGAV	inactive
SGKFTSGLIVRSASIGLYST	0.747 ± 0.26
SGLLSAVLDAAS	inactive
SGMLIVLRSWLDRDSICEGR	inactive
SGSAQLECASSRAYVMIVHL	0.425 ± 0.18
SGVGCKSLFWSSVAYMSIWG	inactive

Substance	amyloid nucleation score
SGVSFDSIGVSVLQTHGGLR	inactive
SGWKQSGS	inactive
SHGHYCIVFVFTRL	inactive
SHHSHSNDVALGSSISF	inactive
SHNGLKTLNGSFLAYLSCRA	0.904 ± 0.16
SHNSHGYFLSVLVVMRMSGR	inactive
SHRGDAVLVFCLVCLVILDG	inactive
SHRVNWFLCSCLESYFMCNT	-0.522 ± 0.78
SHSLS	inactive
SIAIHSMLKYNVPLVSRHSG	inactive
SIFAVSGLSVF	inactive
SIFCGCLVLLTGNYLLICIS	1.13 ± 0.17
SIFHLTSKVYISDWFC	2 ± 0.088
SIFIYDVPIVSRWRIFGKQS	inactive
SIFSSCLSPYSFSYIKLLSC	0.504 ± 0.26
SIGNAIS	inactive
SIGNCIFYTMAVFQWSTYTL	inactive
SIGQHWLGS	inactive
SIGVFRYFVLVLHYWYGISS	inactive
SIGYDCLQSGAFKSLHTMAL	inactive
SIHCIYSWR	1.27 ± 0.12
SIILGCCLWLHLMH	2.08 ± 0.059
SIIVTVQLWYVGV	0.422 ± 0.36

Substance	amyloid nucleation score
SIKLGILEMCKA	inactive
SILKFNQSLQSLFSNYYHLC	1.14 ± 0.097
SIMTSFRPFPTWRCG	-0.563 ± 0.57
SIRLIIKELDGNDTCIGVSG	inactive
SISPVSPGIRAKITTAEMVR	-0.201 ± 1.1
SITYCWLHR	1.77 ± 0.078
SKCIKLFNFNVSCFQTSSLL	2.29 ± 0.092
SKLWSYWDLSWLTLKVGWLR	inactive
SKRARVKWSTQPHFVRYLLE	inactive
SKSKYHFYHHGEAWSTLVVV	inactive
SKSQSSHHDSYSLWTM	inactive
SLAKFNMNYGTYGLEGFSVW	-0.209 ± 0.81
SLAVGLLNCLL	2.17 ± 0.075
SLCVVGP	-0.107 ± 0.6
SLESWFVTRRCSRYESTFMS	inactive
SLEVLIYDGKCMSCDDVVNG	inactive
SLFFN	inactive
SLGTLISLPYTSA	inactive
SLIDHYLSDLSKKS	inactive
SLILALFSGISSDF	0.122 ± 0.37
SLKEVSFWSASRDDGGDRMQ	inactive
SLKGVITSFVRNVFFNRAMY	inactive
SLLYEEPEVLINNSSGSAS	inactive

Substance	amyloid nucleation score
SLMCLLVRLLIKN	inactive
SLMKGCTLLDSFRLRKP	inactive
SLMYKWKEGSQDGYCWAW	0.824 ± 0.28
SLNKHR	inactive
SLNMLDFFYSLFGVCNKTVL	inactive
SLNWVGVCNMKSPVNSTQSI	0.329 ± 0.67
SLSFIECLMELNNLVYYLGS	inactive
SLSLSIIRAVDFWDMVRGLN	inactive
SLSVVMLLKVVVRPSNWWEG	inactive
SLTSWGRMMSWVPCSKELRQ	inactive
SLTVKFSLLKGESQVDHFVS	-0.158 ± 0.85
SLVIAIHRAFLFMAGRSRVG	inactive
SLVSFFCHVGNKWFNHDFPI	inactive
SLVSYINGKVKNVPCKSCCY	inactive
SLVTRGLPVCRFRSDSDYSI	inactive
SLWSVEDSGYKC	inactive
SLWYIRSLLCFEVLSLFHLL	inactive
SLYRGYLFGCGQFDNIVYEL	inactive
SMANFTAETSDIRINFIVSM	0.779 ± 0.14
SMCMRCLSVSKKKAQKSDEP	inactive
SMCRTPILQPIAVQNVSMGR	inactive
SMFRSRFLKVRDVSTTSQCA	inactive
SMFYMRFHVQ	inactive

Substance	amyloid nucleation score
SMKFC	inactive
SMKGNSWF	inactive
SMLVELVFSLQTQSSGSSGR	-0.059 ± 0.43
SMNNWGFDNICSQVCPLAAM	inactive
SMNPIECYNAHLVSSGFWVQ	inactive
SMNRV	inactive
SMQKGGK	inactive
SMRLVAWYW	inactive
SMWYASFTYESYLCLFKESR	inactive
SMYLYVAWARVLNDLDNID	inactive
SNAFSGLRQLPPSNDSLCKG	inactive
SNAMMGSRRIGLMGYAVRVL	inactive
SNCFPLSFWIR	-0.88 ± 1.3
SNDYCRGCVCLDSGMNVCVA	inactive
SNFLGNQRMLRSAQIPRMRL	inactive
SNHIDAVNHDGHSHPYHTTR	inactive
SNIGVGKTYHRCTFFFWLIC	0.989 ± 0.24
SNKECLLGIGWFASYKVIPT	inactive
SNKSHVCYFSIEFVLISGLS	inactive
SNNLEGVLSVCDFVF	inactive
SNPLQGDSLRSVLSCNSIYF	inactive
SNSHVTKDLGVCRGLATCRG	inactive
SNSVIW	inactive

Substance	amyloid nucleation score
SNSYYWPNLYVFSTVNMVSD	2 ± 0.098
SNVGSDDTFLVLLHSHSRSG	0.72 ± 0.49
SNYFTFYLFNVRGIWGFADC	2.56 ± 0.07
SPAHGLGFDMKMVVFMFGDR	1.54 ± 0.12
SPDTARTH	inactive
SPHLLDWSKIAFLVSHMPHS	inactive
SPICNEEYNNVDTCILWGYF	inactive
SPLLNPGPSWF	inactive
SPMRLLGSSFGQ	inactive
SPQGTVCNQSIFVALPLRVG	inactive
SPQVLDRWDQFKWKFVFRGS	0.584 ± 0.13
SPVIKRYCILM	inactive
SPVMPMMFGNKRVPLITDLR	inactive
SPVSNYYDIKVVRDVSGCFT	inactive
SPWYLNVAIGTAKGCLSFID	inactive
SQDFKLPSLSTFYRHGMEPS	inactive
SQGGFRNMWR	inactive
SQLRP	inactive
SQSLPFVCA	inactive
SQWIIGFTVTCFSSCKILKM	inactive
SRALDGYKVPRFWIVRARGR	inactive
SRCFWQSLEVTVILGSCINT	1.64 ± 0.11
SRCGSIGGMKG	inactive

Substance	amyloid nucleation score
SRCPMADCMRKPRGGCSVGR	inactive
SRDFKIGCWLKIRSVIDPVW	inactive
SREVSLLKWMVIILCLW	inactive
SRFGMHKDTKMWSSRCRCVR	inactive
SRFKFTAESLISVTVERLFL	0.626 ± 0.21
SRFNMFNLS	0.163 ± 0.34
SRGEKNSNFTWTNDFDFFRV	inactive
SRHTICHKQNSCRKVLSPPH	inactive
SRKVYEPKVPLAVSGCRMNV	inactive
SRLNWSRRWSLVSQNARRTS	inactive
SRNLPVLTYLFLVKKWEWYP	inactive
SRNPYLYQIHVYKVTGFLCC	2.51 ± 0.062
SRPVVRVINYYELGHIKVMS	inactive
SRSPNFQKFLHCMTTSN	inactive
SRTSYYMPTIPCMMPMN	inactive
SRVGGISC	inactive
SRVLILM	inactive
SRVRNDWYRVKVMGANVVGY	inactive
SRWIGYSFSGGSGGFVGRKA	inactive
SRWVIGHVNTGSGGLESDKR	inactive
